As a reminder, the kcat is the number of substrate molecules converted per active site and unit of time at saturation. The term kcat/Km denotes the second-order rate constant that governs catalysis at low substrate concentration.

The results in this text go back to publication PMC3507735, “Cloning, expression and characterization of an aryl-alcohol dehydrogenase from the white-rot fungus Phanerochaete chrysosporium strain BKM-F-1767” (BMC Microbiology, 2012).

The subject of one data set is COc1ccc(C=O)cc1O. In words: purified protein. The conditions noted are these: reduction, 0.3 mM NADPH, 50 mM MES pH 6.1, 30°C.
The target of data set [1] is T1, Pc Aad1p (recombinant aryl-alcohol dehydrogenase, AAD1) (Phanerodontia chrysosporium, UniProt Q01752).
T1 sequence (Q01752 1-385): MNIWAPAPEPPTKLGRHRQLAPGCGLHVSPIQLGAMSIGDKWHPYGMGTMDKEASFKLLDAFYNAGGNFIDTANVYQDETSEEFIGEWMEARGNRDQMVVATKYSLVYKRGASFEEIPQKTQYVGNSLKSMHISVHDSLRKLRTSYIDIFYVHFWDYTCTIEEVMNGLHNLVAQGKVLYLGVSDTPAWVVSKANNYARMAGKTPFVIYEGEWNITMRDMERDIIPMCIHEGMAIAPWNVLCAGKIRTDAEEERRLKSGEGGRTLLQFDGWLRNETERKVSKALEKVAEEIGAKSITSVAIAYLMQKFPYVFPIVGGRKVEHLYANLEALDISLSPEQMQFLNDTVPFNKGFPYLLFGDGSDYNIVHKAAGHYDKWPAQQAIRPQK
In words: spectrophotometric NADPH oxidation at […] nm, non-linear fit. The conditions noted are these: read-out: KMμM; reduction; 0.3 mM NADPH, 50 mM MES pH 6.1, 30°C.

Data set [2] deals with T1, Pc Aad1p (recombinant aryl-alcohol dehydrogenase, AAD1). The data set can be described thus: spectrophotometric NADPH oxidation at […] nm, fit to uncompetitive substrate inhibition equation. Also on record: full-length ORF (1155 bp) in pGS-21a; N-terminal His6-GST and C-terminal His6 tags kept; E. coli BL21 Star(DE3). The note with it: substrate inhibition constant (uncompetitive); 0.3 mM NADPH, 50 mM MES pH 6.1, 30°C. Type of data set: biochemical.

Substrate in data set [3]: COc1cc(C=O)cc(OC)c1
In words: purified protein. The note with it: reduction, 0.3 mM NADPH, 50 mM MES pH 6.1, 30°C.

Substrate in data set [4]: O=CCc1ccccc1
The data set can be described thus: purified protein. The conditions noted are these: reduction, 0.3 mM NADPH, 50 mM MES pH 6.1, 30°C.

Substrate in data set [5]: COc1ccc(C=O)cc1OC
The data set can be described thus: purified protein. The note with it: reduction, 0.3 mM NADPH, 50 mM MES pH 6.1, 30°C.

Substrate in data set [6]: COc1cc(C=O)ccc1O
In words: purified protein. The conditions noted are these: reduction, 0.3 mM NADPH, 50 mM MES pH 6.1, 30°C.

Substrate in data set [7]: O=Cc1ccccc1
In words: purified protein. The note with it: reduction, 0.3 mM NADPH, 50 mM MES pH 6.1, 30°C.

Substrate in data set [8]: O=Cc1ccc(CO)o1
The data set can be described thus: purified protein. The note with it: reduction, 0.3 mM NADPH, 50 mM MES pH 6.1, 30°C.

Substrate in data set [9]: NC(=O)C1=CN([C@@H]2O[C@H](COP(=O)(O)OP(=O)(O)OC[C@H]3O[C@@H](n4cnc5c(N)ncnc54)[C@H](OP(=O)(O)O)[C@@H]3O)[C@@H](O)[C@H]2O)C=CC1
The data set can be described thus: purified protein. Type of data set: biochemical, Phanerodontia chrysosporium. The conditions noted are these: 0.2 mM 3,4-dimethoxybenzaldehyde, 50 mM MES pH 6.1, 30°C, varied: cofactor.

Substrate in data set [10]: COc1ccc(CO)cc1OC
The data set can be described thus: purified protein. The note with it: oxidation, 0.3 mM NADP+, 100 mM Glycine-KOH pH 10.3, 30°C. Type of data set: biochemical, Phanerodontia chrysosporium.

Substrate in data set [11]: COc1cc(CO)ccc1O
The data set can be described thus: purified protein. The note with it: oxidation, 0.3 mM NADP+, 100 mM Glycine-KOH pH 10.3, 30°C. Type of data set: biochemical, Phanerodontia chrysosporium.

Substrate in data set [12]: NC(=O)c1ccc[n+]([C@@H]2O[C@H](COP(=O)(O)OP(=O)(O)OC[C@H]3O[C@@H](n4cnc5c(N)ncnc54)[C@H](OP(=O)(O)O)[C@@H]3O)[C@@H](O)[C@H]2O)c1
In words: purified protein. Type of data set: biochemical, Phanerodontia chrysosporium. The conditions noted are these: 10 mM 3,4-dimethoxybenzyl alcohol, 100 mM Glycine-KOH pH 10.3, 30°C, varied: cofactor.

Substrate in data set [13]: NC(=O)C1=CN([C@@H]2O[C@H](COP(=O)(O)OP(=O)(O)OC[C@H]3O[C@@H](n4cnc5c(N)ncnc54)[C@H](O)[C@@H]3O)[C@@H](O)[C@H]2O)C=CC1
The data set can be described thus: purified protein. Type of data set: biochemical, Phanerodontia chrysosporium. The note with it: 0.2 mM 3,4-dimethoxybenzaldehyde, 50 mM MES pH 6.1, 30°C, varied: cofactor.

Regarding “Pc Aad1p (recombinant aryl-alcohol dehydrogenase, AAD1) (Phanerodontia chrysosporium)”, in the data set with COc1ccc(C=O)cc1O, the Km stood at 1400 ± 900 µM, the kcat was 3.83 ± 1.83 s⁻¹ and the kcat/Km amounted to 2670 M⁻¹ s⁻¹.

Take `O=C/C=C/c1ccccc1` [trans-Cinnamaldehyde]: in data set [1], the Km is 3400 ± 1300 µM. In addition, the KiμM in data set [2] came to 3500 ± 1600 µM.

As to `COc1ccc(C=O)cc1OC` [3,4-Dimethoxybenzaldehyde], the KiμM in [2] was found to be 3400 ± 1100 µM.

Take `COc1cc(C=O)cc(OC)c1` [3,5-Dimethoxybenzaldehyde]: the KiμM in data set [2] turned out to be 2100 ± 600 µM.

As for `O=Cc1ccccc1` [Benzaldehyde], the KiμM in data set [2] was determined as 81000 ± 44000 µM.

Take `COc1ccc(C=O)cc1O` [3-Hydroxy-4-methoxybenzaldehyde]: in data set [2], the KiμM is 2300 ± 1800 µM.

Regarding `COc1cc(C=O)ccc1O` [4-Hydroxy-3-methoxybenzaldehyde], the KiμM in data set [2] was 5100 ± 2300 µM.

As for `COc1ccc(C=O)cc1` [4-Methoxybenzaldehyde], the Km in data set [1] is 90 ± 10 µM.

B1: Pc Aad1p (recombinant aryl-alcohol dehydrogenase, AAD1) (Phanerodontia chrysosporium) (protein)
chain: MNIWAPAPEPPTKLGRHRQLAPGCGLHVSPIQLGAMSIGDKWHPYGMGTMDKEASFKLLDAFYNAGGNFIDTANVYQDETSEEFIGEWMEARGNRDQMVVATKYSLVYKRGASFEEIPQKTQYVGNSLKSMHISVHDSLRKLRTSYIDIFYVHFWDYTCTIEEVMNGLHNLVAQGKVLYLGVSDTPAWVVSKANNYARMAGKTPFVIYEGEWNITMRDMERDIIPMCIHEGMAIAPWNVLCAGKIRTDAEEERRLKSGEGGRTLLQFDGWLRNETERKVSKALEKVAEEIGAKSITSVAIAYLMQKFPYVFPIVGGRKVEHLYANLEALDISLSPEQMQFLNDTVPFNKGFPYLLFGDGSDYNIVHKAAGHYDKWPAQQAIRPQK
notes: full-length ORF (1155 bp) in pGS-21a; N-terminal His6-GST and C-terminal His6 tags kept; E. coli BL21 Star(DE3)
With B1, the Km amounted to 22 ± 4 µM in “purified protein [3]”; 530 ± 90 µM in the data set “purified protein [4]”; 12 ± 2 µM in “purified protein [5]”; 1400 ± 600 µM in “purified protein [6]”; 1700 ± 600 µM in the data set “purified protein [7]”; 270 ± 40 µM in “purified protein [8]”. Also, the Km stood at 39 ± 5 µM in “purified protein [9]”; 370 ± 50 µM in the data set “purified protein [10]”; 25000 ± 7000 µM in “purified protein [11]”; 38 ± 7 µM in the data set “purified protein [12]”; 220 ± 130 µM in the data set “purified protein [13]”. For the same molecule, the kcat in the data set “purified protein [3]” was 9.83 ± 0.5 s⁻¹; in the data set “purified protein [4]”, 11.2 ± 0.417 s⁻¹; in “purified protein [5]” it was 8.83 ± 0.417 s⁻¹; in the data set “purified protein [6]” it was 3.33 ± 0.833 s⁻¹; in the data set “purified protein [7]”, 7.17 ± 0.833 s⁻¹; in “purified protein [8]”, 2.93 ± 0.1 s⁻¹. In addition, the kcat in the data set “purified protein [9]” stood at 11.3 ± 0.5 s⁻¹; in the data set “purified protein [10]”, 2.55 ± 0.1 s⁻¹; in “purified protein [11]”, 4.33 ± 1 s⁻¹; in “purified protein [12]” it was 2.57 ± 0.12 s⁻¹; in the data set “purified protein [13]”, 2 ± 0.667 s⁻¹. For the same molecule, the kcat/Km in “purified protein [3]” worked out at 450000 M⁻¹ s⁻¹; in “purified protein [4]”, 21700 M⁻¹ s⁻¹; in the data set “purified protein [5]”, 733000 M⁻¹ s⁻¹; in “purified protein [6]”, 2330 M⁻¹ s⁻¹; in “purified protein [7]”, 5000 M⁻¹ s⁻¹; in “purified protein [8]”, 10800 M⁻¹ s⁻¹. For the same molecule, the kcat/Km stood at 283000 M⁻¹ s⁻¹ in “purified protein [9]”; 6830 M⁻¹ s⁻¹ in the data set “purified protein [10]”; 167 M⁻¹ s⁻¹ in “purified protein [11]”; 68300 M⁻¹ s⁻¹ in the data set “purified protein [12]”; 10000 M⁻¹ s⁻¹ in the data set “purified protein [13]”.
